From US4748122A, “2,5-diketo-D-gluconic acid reductase” (Shionogi & Co., Ltd., priority 1983, dated 1988)

Substrate: O=C(O)C(=O)[C@@H](O)[C@H](O)C(=O)CO
Assay: Spectrophotometric enzymatic activity (decrease in absorption at 340 nm), purified enzyme solution of Example 1
Format: biochemical, Corynebacterium sp. No. 20A-77 mutant (FERM-BP 108)
Settings: other: varying concentrations of Ca-25DKG, 0.1M TB pH 7, 30° C.

B1: 25DKG-Rase (Corynebacterium sp. SHS752001) (protein)
chain: PNIPTISLNDGRPFAEPGLGTYNLRGDEGVAAMVAAIDSGYRLLDTAVNYENESEVGRAVRASSVDRDELIVASKIPGRQHGRAEAVDSIRGSLDRLGLDVIDLQLIHWPNPSVGRWLDTWRGMIDAREAGLVRSIGVSNFTEPMLKTLIDETGVTPAVNQVELHPYFPQAALRAFHDEHGIRTESWSPLARRSELLTEQLLQELAVVYGVTPTQVVLRWHVQLGSTPIPKSADPDRQRENADVFGFALTADQVDAISGLERGRLWDGDPDTHEEM
notes: The enzyme is an intracellular enzyme extracted from the cells of the 2KLG producing strain; made in house; host or cells: natural producer Corynebacterium sp; No. 20A-77 mutant FERM-BP 108, enzyme purified from sonicated cells; not recombinant
  Km: 1800 ± 1000 µM
